Laboratory results from article PMC8016129, “Switching the substrate specificity of lysoplasmalogen‐specific phospholipase D” (FEBS Open Bio, 2021).

B1: LyPls-PLD (lysoplasmalogen-specific phospholipase D) (Thermocrispum sp. RD004668; F211L) (protein)
chain: TTRTTDNPWLDARVLNMAHAGGENEAPANTLYAFKRAVKLGANMLELDVQSTKDDQLVVIHNATVDQTTDGTGKVRDLTFEQVHELDAAYNFIPGRHAVPGEPPESYPLRGVRTGEKKPPPGYQPSDFAIPKLADVLEAFPRTPINIEIKGTSDADIPSFLHNAKLLARLLKKTGRTDFIVTSLNDLAVAKFHLLAPDIPIAPGMAGLAAYFLLGVKPMHGTVALQIPVRYQGLEIATPEFIRRAHADGYAVHVWFSGTAPDDEATYNRIIDSCADGLMPAYPALLERILDERGIERPGRPGVDPCG
notes: recombinant from pET24/lpls-pld in E. coli BL21(DE3); purified on HisTrap HP
B2: LyPls-PLD (lysoplasmalogen-specific phospholipase D) (Thermocrispum sp. RD004668) (protein)
chain: TTRTTDNPWLDARVLNMAHAGGENEAPANTLYAFKRAVKLGANMLELDVQSTKDDQLVVIHNATVDQTTDGTGKVRDLTFEQVHELDAAYNFIPGRHAVPGEPPESYPLRGVRTGEKKPPPGYQPSDFAIPKLADVLEAFPRTPINIEIKGTSDADIPSFLHNAKLLARLLKKTGRTDFIVTSFNDLAVAKFHLLAPDIPIAPGMAGLAAYFLLGVKPMHGTVALQIPVRYQGLEIATPEFIRRAHADGYAVHVWFSGTAPDDEATYNRIIDSCADGLMPAYPALLERILDERGIERPGRPGVDPCG
notes: as for B1
B3: LyPls-PLD (lysoplasmalogen-specific phospholipase D) (Thermocrispum sp. RD004668; M71G) (protein)
chain: TTRTTDNPWLDARVLNMAHAGGENEAPANTLYAFKRAVKLGANGLELDVQSTKDDQLVVIHNATVDQTTDGTGKVRDLTFEQVHELDAAYNFIPGRHAVPGEPPESYPLRGVRTGEKKPPPGYQPSDFAIPKLADVLEAFPRTPINIEIKGTSDADIPSFLHNAKLLARLLKKTGRTDFIVTSFNDLAVAKFHLLAPDIPIAPGMAGLAAYFLLGVKPMHGTVALQIPVRYQGLEIATPEFIRRAHADGYAVHVWFSGTAPDDEATYNRIIDSCADGLMPAYPALLERILDERGIERPGRPGVDPCG
notes: as for B1
B4: LyPls-PLD (lysoplasmalogen-specific phospholipase D) (Thermocrispum sp. RD004668; W282G) (protein)
chain: TTRTTDNPWLDARVLNMAHAGGENEAPANTLYAFKRAVKLGANMLELDVQSTKDDQLVVIHNATVDQTTDGTGKVRDLTFEQVHELDAAYNFIPGRHAVPGEPPESYPLRGVRTGEKKPPPGYQPSDFAIPKLADVLEAFPRTPINIEIKGTSDADIPSFLHNAKLLARLLKKTGRTDFIVTSFNDLAVAKFHLLAPDIPIAPGMAGLAAYFLLGVKPMHGTVALQIPVRYQGLEIATPEFIRRAHADGYAVHVGFSGTAPDDEATYNRIIDSCADGLMPAYPALLERILDERGIERPGRPGVDPCG
notes: as for B1
B5: LyPls-PLD (lysoplasmalogen-specific phospholipase D) (Thermocrispum sp. RD004668; F211T) (protein)
chain: TTRTTDNPWLDARVLNMAHAGGENEAPANTLYAFKRAVKLGANMLELDVQSTKDDQLVVIHNATVDQTTDGTGKVRDLTFEQVHELDAAYNFIPGRHAVPGEPPESYPLRGVRTGEKKPPPGYQPSDFAIPKLADVLEAFPRTPINIEIKGTSDADIPSFLHNAKLLARLLKKTGRTDFIVTSTNDLAVAKFHLLAPDIPIAPGMAGLAAYFLLGVKPMHGTVALQIPVRYQGLEIATPEFIRRAHADGYAVHVWFSGTAPDDEATYNRIIDSCADGLMPAYPALLERILDERGIERPGRPGVDPCG
notes: as for B1
B6: LyPls-PLD (lysoplasmalogen-specific phospholipase D) (Thermocrispum sp. RD004668; N173A) (protein)
chain: TTRTTDNPWLDARVLNMAHAGGENEAPANTLYAFKRAVKLGANMLELDVQSTKDDQLVVIHNATVDQTTDGTGKVRDLTFEQVHELDAAYNFIPGRHAVPGEPPESYPLRGVRTGEKKPPPGYQPSDFAIPKLADVLEAFPRTPIAIEIKGTSDADIPSFLHNAKLLARLLKKTGRTDFIVTSFNDLAVAKFHLLAPDIPIAPGMAGLAAYFLLGVKPMHGTVALQIPVRYQGLEIATPEFIRRAHADGYAVHVWFSGTAPDDEATYNRIIDSCADGLMPAYPALLERILDERGIERPGRPGVDPCG
notes: as for B1
B7: LyPls-PLD (lysoplasmalogen-specific phospholipase D) (Thermocrispum sp. RD004668; F211C) (protein)
chain: TTRTTDNPWLDARVLNMAHAGGENEAPANTLYAFKRAVKLGANMLELDVQSTKDDQLVVIHNATVDQTTDGTGKVRDLTFEQVHELDAAYNFIPGRHAVPGEPPESYPLRGVRTGEKKPPPGYQPSDFAIPKLADVLEAFPRTPINIEIKGTSDADIPSFLHNAKLLARLLKKTGRTDFIVTSCNDLAVAKFHLLAPDIPIAPGMAGLAAYFLLGVKPMHGTVALQIPVRYQGLEIATPEFIRRAHADGYAVHVWFSGTAPDDEATYNRIIDSCADGLMPAYPALLERILDERGIERPGRPGVDPCG
notes: as for B1

Key:
[1] = substrate: CCCCCCCCCCCCCCCC/C=C\OC[C@@H](O)COP(=O)([O-])OCC[N+](C)(C)C; experiment: released choline by choline oxidase/peroxidase colorimetric assay, Michaelis-Menten fit; format: biochemical, Thermocrispum sp. RD004668; conditions: pH 8.0, 50 °C, 1 min, 2 mM CaCl2, substrate micelles
Text: (§1) released choline by choline oxidase/peroxidase colorimetric assay, Michaelis-Menten fit on LyPls-PLD (lysoplasmalogen-specific phospholipase D)

[2] = substrate: CCCCCCCCCCCCCCCCOC[C@@H](O)COP(=O)([O-])OCC[N+](C)(C)C; experiment: as above; format: biochemical, Thermocrispum sp. RD004668; conditions: pH 8.0, 50 °C, 1 min, 2 mM CaCl2, substrate micelles
Text: as §1

Protein	Km [1]	kcat [1]	kcat/Km [1]	Km [2]	kcat [2]	kcat/Km [2]
B1	76.7 ± 12.6 µM	21 ± 0.91 s⁻¹	271000 ± 46000 M⁻¹ s⁻¹	26.8 ± 8.55 µM	187 ± 6.3 s⁻¹	6.97e+06 ± 2.24e+06 M⁻¹ s⁻¹
B2	88.9 ± 8.76 µM	122 ± 3.47 s⁻¹	1.37e+06 ± 141000 M⁻¹ s⁻¹	56.4 ± 16.9 µM	74 ± 4.9 s⁻¹	1.3e+06 ± 400000 M⁻¹ s⁻¹
B3	64.8 ± 4.18 µM	57 ± 2.5 s⁻¹	880000 ± 68500 M⁻¹ s⁻¹	69.3 ± 10.2 µM	72 ± 2.9 s⁻¹	1.04e+06 ± 159000 M⁻¹ s⁻¹
B4	286 ± 51.7 µM	10.5 ± 0.95 s⁻¹	36000 ± 7250 M⁻¹ s⁻¹	71.7 ± 5.26 µM	4.4 ± 0.082 s⁻¹	60900 ± 4630 M⁻¹ s⁻¹
B5	–	–	–	40.6 ± 5.49 µM	205 ± 8.9 s⁻¹	5.06e+06 ± 720000 M⁻¹ s⁻¹
B6	200 ± 42.3 µM	42 ± 3.9 s⁻¹	212000 ± 49000 M⁻¹ s⁻¹	110 ± 17.1 µM	106 ± 4.0 s⁻¹	965000 ± 153000 M⁻¹ s⁻¹
B7	–	–	–	52.2 ± 9.44 µM	207 ± 15 s⁻¹	3.96e+06 ± 769000 M⁻¹ s⁻¹
